# Results published in patent US20230002460A1 (YUHAN, published 2023).
# Where two headings read alike, the source gives them in different places.
# B1: long-acting GDF15 fusion protein (dimer) FM1 + Fc_hole (ΔN3, WS insertion, G4N, D5S, H6T) (Fc fusion)
# chain 1: APALAGGPSVFLFPPKPKDTLMISRTPEVTCVVVDVSHEDPEVKFNWYVDGVEVHNAKTKPREEQYNSTYRVVSVLTVLHQDWLNGKEYKCKVSNKALPAPIEKTISKAKGQPREPQVYTLPPSREEMTKNQVSLWCLVKGFYPSDIAVEWESNGQPENNYKTTPPVLDSDGSFFLYSKLTVDKSRWQQGNVFSCSVMHEALHNHYTQKSLSLSPGKGGGGSGGGGSGGGGSGGGGSGGGGSWSNSTCPLGPGRCCRLHTVRASLEDLGWADWVLSPREVQVTMCIGACPSQFRAANMHAQIKTSLHRLKPDTVPAPCCVPASYNPMVLIQKTDTGVSLQTYDDLLAKDCHCI
# chain 2: not shown
# B2: long-acting GDF15 fusion protein (dimer) FM11-1 + Fc_hole (ΔN3, G4N, D5S, H6T, S64R; linker GS(G4S)3) (Fc fusion)
# chain 1: APEAAGGPSVFLFPPKPKDTLMISRTPEVTCVVVDVSHEDPEVKFNWYVDGVEVHNAKTKPREEQYASTYRVVSVLTVLHQDWLNGKEYKCKVSNKALPAPIEKTISKAKGQPREPQVYTLPPSREEMTKNQVSLWCLVKGFYPSDIAVEWESNGQPENNYKTTPPVLDSDGSFFLYSKLTVDKSRWQQGNVFSCSVMHEALHNHYTQKSLSLSPGKGSGGGGSGGGGSGGGGSNSTCPLGPGRCCRLHTVRASLEDLGWADWVLSPREVQVTMCIGACPSQFRAANMHAQIKTRLHRLKPDTVPAPCCVPASYNPMVLIQKTDTGVSLQTYDDLLAKDCHCI
# chain 2: APEAAGGPSVFLFPPKPKDTLMISRTPEVTCVVVDVSHEDPEVKFNWYVDGVEVHNAKTKPREEQYASTYRVVSVLTVLHQDWLNGKEYKCKVSNKALPAPIEKTISKAKGQPREPQVYTLPPSREEMTKNQVSLSCAVKGFYPSDIAVEWESNGQPENNYKTTPPVLDSDGSFFLVSKLTVDKSRWQQGNVFSCSVMHEALHNHYTQKSLSLSPGK
# B3: long-acting GDF15 fusion protein (dimer) FM11-4 + Fc_hole (ΔN3, G4N, D5S, H6T, S64R; linker GS(EEEA)6) (Fc fusion)
# chain 1: APEAAGGPSVFLFPPKPKDTLMISRTPEVTCVVVDVSHEDPEVKFNWYVDGVEVHNAKTKPREEQYASTYRVVSVLTVLHQDWLNGKEYKCKVSNKALPAPIEKTISKAKGQPREPQVYTLPPSREEMTKNQVSLWCLVKGFYPSDIAVEWESNGQPENNYKTTPPVLDSDGSFFLYSKLTVDKSRWQQGNVFSCSVMHEALHNHYTQKSLSLSPGKGSEEEAEEEAEEEAEEEAEEEAEEEANSTCPLGPGRCCRLHTVRASLEDLGWADWVLSPREVQVTMCIGACPSQFRAANMHAQIKTRLHRLKPDTVPAPCCVPASYNPMVLIQKTDTGVSLQTYDDLLAKDCHCI
# chain 2: B2 chain 2
# B4: long-acting GDF15 fusion protein (dimer) FM9-5 + Fc_hole (ΔN2, S64R; linker GSGGSS(PT)10) (Fc fusion)
# chain 1: APEAAGGPSVFLFPPKPKDTLMISRTPEVTCVVVDVSHEDPEVKFNWYVDGVEVHNAKTKPREEQYASTYRVVSVLTVLHQDWLNGKEYKCKVSNKALPAPIEKTISKAKGQPREPQVYTLPPSREEMTKNQVSLWCLVKGFYPSDIAVEWESNGQPENNYKTTPPVLDSDGSFFLYSKLTVDKSRWQQGNVFSCSVMHEALHNHYTQKSLSLSPGKGSGGSSPTPTPTPTPTPTPTPTPTPTNGDHCPLGPGRCCRLHTVRASLEDLGWADWVLSPREVQVTMCIGACPSQFRAANMHAQIKTRLHRLKPDTVPAPCCVPASYNPMVLIQKTDTGVSLQTYDDLLAKDCHCI
# chain 2: B2 chain 2
# B5: long-acting GDF15 fusion protein (dimer) FM9-2 + Fc_hole (ΔN2, S64R; linker GS(G4S)5) (Fc fusion)
# chain 1: APEAAGGPSVFLFPPKPKDTLMISRTPEVTCVVVDVSHEDPEVKFNWYVDGVEVHNAKTKPREEQYASTYRVVSVLTVLHQDWLNGKEYKCKVSNKALPAPIEKTISKAKGQPREPQVYTLPPSREEMTKNQVSLWCLVKGFYPSDIAVEWESNGQPENNYKTTPPVLDSDGSFFLYSKLTVDKSRWQQGNVFSCSVMHEALHNHYTQKSLSLSPGKGSGGGGSGGGGSGGGGSGGGGSGGGGSNGDHCPLGPGRCCRLHTVRASLEDLGWADWVLSPREVQVTMCIGACPSQFRAANMHAQIKTRLHRLKPDTVPAPCCVPASYNPMVLIQKTDTGVSLQTYDDLLAKDCHCI
# chain 2: B2 chain 2
# B6: long-acting GDF15 fusion protein (dimer) FM9-3 + Fc_hole (ΔN2, S64R; linker GS(G4S)7) (Fc fusion)
# chain 1: APEAAGGPSVFLFPPKPKDTLMISRTPEVTCVVVDVSHEDPEVKFNWYVDGVEVHNAKTKPREEQYASTYRVVSVLTVLHQDWLNGKEYKCKVSNKALPAPIEKTISKAKGQPREPQVYTLPPSREEMTKNQVSLWCLVKGFYPSDIAVEWESNGQPENNYKTTPPVLDSDGSFFLYSKLTVDKSRWQQGNVFSCSVMHEALHNHYTQKSLSLSPGKGSGGGGSGGGGSGGGGSGGGGSGGGGSGGGGSGGGGSNGDHCPLGPGRCCRLHTVRASLEDLGWADWVLSPREVQVTMCIGACPSQFRAANMHAQIKTRLHRLKPDTVPAPCCVPASYNPMVLIQKTDTGVSLQTYDDLLAKDCHCI
# chain 2: B2 chain 2
# B7: long-acting GDF15 fusion protein (dimer) FM9-1 + Fc_hole (ΔN2, S64R; linker GS(G4S)3) (Fc fusion)
# chain 1: APEAAGGPSVFLFPPKPKDTLMISRTPEVTCVVVDVSHEDPEVKFNWYVDGVEVHNAKTKPREEQYASTYRVVSVLTVLHQDWLNGKEYKCKVSNKALPAPIEKTISKAKGQPREPQVYTLPPSREEMTKNQVSLWCLVKGFYPSDIAVEWESNGQPENNYKTTPPVLDSDGSFFLYSKLTVDKSRWQQGNVFSCSVMHEALHNHYTQKSLSLSPGKGSGGGGSGGGGSGGGGSNGDHCPLGPGRCCRLHTVRASLEDLGWADWVLSPREVQVTMCIGACPSQFRAANMHAQIKTRLHRLKPDTVPAPCCVPASYNPMVLIQKTDTGVSLQTYDDLLAKDCHCI
# chain 2: B2 chain 2
# B8: long-acting GDF15 fusion protein (dimer) FM11-2 + Fc_hole (ΔN3, G4N, D5S, H6T, S64R; linker GS(G4S)5) (Fc fusion)
# chain 1: APEAAGGPSVFLFPPKPKDTLMISRTPEVTCVVVDVSHEDPEVKFNWYVDGVEVHNAKTKPREEQYASTYRVVSVLTVLHQDWLNGKEYKCKVSNKALPAPIEKTISKAKGQPREPQVYTLPPSREEMTKNQVSLWCLVKGFYPSDIAVEWESNGQPENNYKTTPPVLDSDGSFFLYSKLTVDKSRWQQGNVFSCSVMHEALHNHYTQKSLSLSPGKGSGGGGSGGGGSGGGGSGGGGSGGGGSNSTCPLGPGRCCRLHTVRASLEDLGWADWVLSPREVQVTMCIGACPSQFRAANMHAQIKTRLHRLKPDTVPAPCCVPASYNPMVLIQKTDTGVSLQTYDDLLAKDCHCI
# chain 2: B2 chain 2
# B9: long-acting GDF15 fusion protein (dimer) FM9-6 + Fc_hole (ΔN2, S64R; linker GS(EAAAK)5) (Fc fusion)
# chain 1: APEAAGGPSVFLFPPKPKDTLMISRTPEVTCVVVDVSHEDPEVKFNWYVDGVEVHNAKTKPREEQYASTYRVVSVLTVLHQDWLNGKEYKCKVSNKALPAPIEKTISKAKGQPREPQVYTLPPSREEMTKNQVSLWCLVKGFYPSDIAVEWESNGQPENNYKTTPPVLDSDGSFFLYSKLTVDKSRWQQGNVFSCSVMHEALHNHYTQKSLSLSPGKGSEAAAKEAAAKEAAAKEAAAKEAAAKNGDHCPLGPGRCCRLHTVRASLEDLGWADWVLSPREVQVTMCIGACPSQFRAANMHAQIKTRLHRLKPDTVPAPCCVPASYNPMVLIQKTDTGVSLQTYDDLLAKDCHCI
# chain 2: B2 chain 2
# B10: long-acting GDF15 fusion protein (dimer) FM11-5 + Fc_hole (ΔN3, G4N, D5S, H6T, S64R; linker GSGGSS(PT)10) (Fc fusion)
# chain 1: APEAAGGPSVFLFPPKPKDTLMISRTPEVTCVVVDVSHEDPEVKFNWYVDGVEVHNAKTKPREEQYASTYRVVSVLTVLHQDWLNGKEYKCKVSNKALPAPIEKTISKAKGQPREPQVYTLPPSREEMTKNQVSLWCLVKGFYPSDIAVEWESNGQPENNYKTTPPVLDSDGSFFLYSKLTVDKSRWQQGNVFSCSVMHEALHNHYTQKSLSLSPGKGSGGSSPTPTPTPTPTPTPTPTPTPTNSTCPLGPGRCCRLHTVRASLEDLGWADWVLSPREVQVTMCIGACPSQFRAANMHAQIKTRLHRLKPDTVPAPCCVPASYNPMVLIQKTDTGVSLQTYDDLLAKDCHCI
# chain 2: B2 chain 2
# B11: long-acting GDF15 fusion protein (dimer) FM9-4 + Fc_hole (ΔN2, S64R; linker GS(EEEA)6) (Fc fusion)
# chain 1: APEAAGGPSVFLFPPKPKDTLMISRTPEVTCVVVDVSHEDPEVKFNWYVDGVEVHNAKTKPREEQYASTYRVVSVLTVLHQDWLNGKEYKCKVSNKALPAPIEKTISKAKGQPREPQVYTLPPSREEMTKNQVSLWCLVKGFYPSDIAVEWESNGQPENNYKTTPPVLDSDGSFFLYSKLTVDKSRWQQGNVFSCSVMHEALHNHYTQKSLSLSPGKGSEEEAEEEAEEEAEEEAEEEAEEEANGDHCPLGPGRCCRLHTVRASLEDLGWADWVLSPREVQVTMCIGACPSQFRAANMHAQIKTRLHRLKPDTVPAPCCVPASYNPMVLIQKTDTGVSLQTYDDLLAKDCHCI
# chain 2: B2 chain 2
# B12: long-acting GDF15 fusion protein (dimer) FM11-6 + Fc_hole (ΔN3, G4N, D5S, H6T, S64R; linker GS(EAAAK)5) (Fc fusion)
# chain 1: APEAAGGPSVFLFPPKPKDTLMISRTPEVTCVVVDVSHEDPEVKFNWYVDGVEVHNAKTKPREEQYASTYRVVSVLTVLHQDWLNGKEYKCKVSNKALPAPIEKTISKAKGQPREPQVYTLPPSREEMTKNQVSLWCLVKGFYPSDIAVEWESNGQPENNYKTTPPVLDSDGSFFLYSKLTVDKSRWQQGNVFSCSVMHEALHNHYTQKSLSLSPGKGSEAAAKEAAAKEAAAKEAAAKEAAAKNSTCPLGPGRCCRLHTVRASLEDLGWADWVLSPREVQVTMCIGACPSQFRAANMHAQIKTRLHRLKPDTVPAPCCVPASYNPMVLIQKTDTGVSLQTYDDLLAKDCHCI
# chain 2: B2 chain 2
# B13: long-acting GDF15 fusion protein (dimer) FM11-3 + Fc_hole (ΔN3, G4N, D5S, H6T, S64R; linker GS(G4S)7) (Fc fusion)
# chain 1: APEAAGGPSVFLFPPKPKDTLMISRTPEVTCVVVDVSHEDPEVKFNWYVDGVEVHNAKTKPREEQYASTYRVVSVLTVLHQDWLNGKEYKCKVSNKALPAPIEKTISKAKGQPREPQVYTLPPSREEMTKNQVSLWCLVKGFYPSDIAVEWESNGQPENNYKTTPPVLDSDGSFFLYSKLTVDKSRWQQGNVFSCSVMHEALHNHYTQKSLSLSPGKGSGGGGSGGGGSGGGGSGGGGSGGGGSGGGGSGGGGSNSTCPLGPGRCCRLHTVRASLEDLGWADWVLSPREVQVTMCIGACPSQFRAANMHAQIKTRLHRLKPDTVPAPCCVPASYNPMVLIQKTDTGVSLQTYDDLLAKDCHCI
# chain 2: B2 chain 2
# How the values were obtained:
# [1] = biological target: T1, GDF15 receptors GFRAL and RET, overexpressed together on HEK293 cells (UniProt Q6UXV0 19-394; P07949 29-1114, limits assumed); experiment: cell-based or functional assay
# T1 sequence (Q6UXV0 19-394 limits assumed, chain 1 of 2): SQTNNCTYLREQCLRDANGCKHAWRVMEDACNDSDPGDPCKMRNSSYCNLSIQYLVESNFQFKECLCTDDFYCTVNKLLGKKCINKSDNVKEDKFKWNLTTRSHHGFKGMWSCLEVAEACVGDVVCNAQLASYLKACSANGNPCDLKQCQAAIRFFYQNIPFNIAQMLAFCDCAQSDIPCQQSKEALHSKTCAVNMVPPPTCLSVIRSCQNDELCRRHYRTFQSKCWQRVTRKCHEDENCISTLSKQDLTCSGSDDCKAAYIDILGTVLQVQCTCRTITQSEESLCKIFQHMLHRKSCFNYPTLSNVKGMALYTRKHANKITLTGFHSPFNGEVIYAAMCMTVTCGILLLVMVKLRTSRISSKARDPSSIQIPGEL
# T1 sequence (P07949 29-1114 limits assumed, chain 2 of 2): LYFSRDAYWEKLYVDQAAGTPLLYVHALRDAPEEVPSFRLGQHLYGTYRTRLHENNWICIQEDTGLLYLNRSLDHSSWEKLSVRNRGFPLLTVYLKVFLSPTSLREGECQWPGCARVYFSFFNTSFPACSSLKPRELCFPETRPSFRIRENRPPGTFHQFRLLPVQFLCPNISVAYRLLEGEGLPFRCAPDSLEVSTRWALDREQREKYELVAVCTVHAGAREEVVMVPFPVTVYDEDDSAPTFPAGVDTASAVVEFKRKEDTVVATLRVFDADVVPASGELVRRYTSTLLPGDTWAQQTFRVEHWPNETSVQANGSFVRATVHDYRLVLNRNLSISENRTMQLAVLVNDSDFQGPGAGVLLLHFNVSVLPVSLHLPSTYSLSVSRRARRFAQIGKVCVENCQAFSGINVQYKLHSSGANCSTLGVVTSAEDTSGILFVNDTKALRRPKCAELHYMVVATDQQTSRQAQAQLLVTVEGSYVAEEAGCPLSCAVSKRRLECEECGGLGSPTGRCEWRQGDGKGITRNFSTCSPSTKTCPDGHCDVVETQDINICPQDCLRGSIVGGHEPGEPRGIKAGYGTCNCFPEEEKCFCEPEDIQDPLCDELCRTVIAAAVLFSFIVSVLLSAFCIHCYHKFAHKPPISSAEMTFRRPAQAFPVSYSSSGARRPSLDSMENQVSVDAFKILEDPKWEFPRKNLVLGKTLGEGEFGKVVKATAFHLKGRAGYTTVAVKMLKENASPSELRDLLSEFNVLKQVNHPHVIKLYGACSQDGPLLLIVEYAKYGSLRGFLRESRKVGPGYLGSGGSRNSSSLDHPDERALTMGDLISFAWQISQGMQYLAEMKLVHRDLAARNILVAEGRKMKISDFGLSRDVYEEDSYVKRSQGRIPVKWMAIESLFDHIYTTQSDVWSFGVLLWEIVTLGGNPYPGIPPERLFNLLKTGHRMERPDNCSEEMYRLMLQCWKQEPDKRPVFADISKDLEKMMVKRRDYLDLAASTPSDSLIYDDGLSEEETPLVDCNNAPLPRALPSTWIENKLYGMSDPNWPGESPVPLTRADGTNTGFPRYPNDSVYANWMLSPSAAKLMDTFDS
# [2] = biological target: T1, GDF15 receptors GFRAL and RET, …; experiment: cell-based or functional assay; remark: listed apart in the source
Binder,EC50 [1],Emax (%) [1],EC50 [2],Emax (%) [2]
B1,1.7 nM,100%,,
B2,,,9.7 nM,65.6%
B3,,,45.4 nM,105%
B4,,,5.3 nM,100%
B5,,,9.5 nM,111%
B6,,,9.3 nM,95.6%
B7,,,9 nM,97.6%
B8,,,7.7 nM,79.4%
B9,,,6.3 nM,100%
B10,,,5.1 nM,68.2%
B11,,,23.6 nM,128%
B12,,,6.8 nM,80.3%
B13,,,7.8 nM,81%
